Experimental data as given in patent US20240358704A1, “COMBINED ADMINISTRATION” (Hoffmann-La Roche Inc., priority 2021, published 2024).

Tests used:
delta7 mice [1] = assay: In vivo plantarflexor muscle function (maximum torque, force frequency response); settings: PND52
Procedure: Hind limb muscle performance was measured in vivo with a 305C muscle lever system (Aurora Scientific Inc., Aurora, CAN). Mice were anesthetized via inhalation (˜4-5% isoflurane, or to effect) and placed on a thermostatically controlled table where anesthesia was maintained via nose-cone (˜2% isoflurane, or to effect). Hair was removed from the lower leg by application of depilatory cream for 3 minutes, followed by thorough rinsing
with physiological buffer. The leg was then wiped with a 5% povidone-iodine solution followed by 70% isopropyl alcohol. The knee was isolated using a pin through the tibial head and the foot firmly fixed to a footplate on the motor shaft. Contractions were elicited in the gastrocnemius by percutaneous electrical stimulation of the sciatic nerve.
(§1) On both muscles, a force frequency response was performed. Briefly, a series of stimulations were performed at increasing frequency of stimulation (0.2 ms pulse, 500 ms train duration): 1, 10, 20, 40, 60, 80, 100, and 150 Hz, followed by a final stimulation at 1 Hz.
(§2) Muscle function data were analyzed using Aurora Scientific 615A Dynamic Muscle Analysis Software Suite in high-throughput mode. The software automatically determines a baseline, a maximum, and a minimum. The baseline is then subtracted from the maximum to give the maximal generated force. Each data file was manually inspected to ensure that cursors and fits were assigned properly and corrected when necessary. Data were then grouped and means and standard error of the mean (SEM) calculated. In the plantarflexor muscle group, results were presented as torque, expressed in the unit mN·m, since the assay measures the force produced by the gastrocnemius rotating about the ankle. Force was directly measured in the masseter, expressed in the unit gram.

delta7 mice [2] = assay: Body weight and muscle weights at PND52 in pharmacological mouse model of SMA; type: in vivo
Source text: The mouse model of SMA (pharmacological model) that has been used in the preclinical trial herein is the delta7 mice treated with a sub-maximal dose of the SMN-upregulating compound SMN-C1 as described in Naryshkin et al, Science 345, 688-693, 2014. […] The advantage of this model is that it has a more severe phenotype than existing mild models but lives into adulthood, which enables testing SMA treatments after disease onset. […] (1) a monotherapy, (2) as a combination therapy with an SMN-upregulating compound administered at the onset of disease, and (3) in a mild model of SMA was don. Dosing of the myostatin inhibitor began at PND24 and continued for 28 days until PND52. In all of these models, GYM329 was administrated once per week at 3 mg/kg (4 subcutaneous injections). A cohort of wild type (WT) littermates treated with the vehicle was included as a reference group. At the study's conclusion, in vivo muscle force frequency, muscle weight, muscle histopathology, bone morphometry, and voluntary running were assessed.
The pharmacological model was generated by treating delta7 mice [FVB.Cg-Tg(SMN2*delta7)4299Ahmb Tg(SMN2)89Ahmb, homozygous knockout mice completely lacking mouse Smnl] with a dose of an SMN-upregulating compound, SMN-C1. For CH1 and CH2, the mice were given a suboptimal dose of SMN-C1 (0.1 mg/kg daily) for the duration of the study. For CH3 and CH4, mice were given a suboptimal dose of SMN-C1 (0.1 mg/kg daily) from PND1-23 and switched to a higher dose (3 mg/kg daily) from PND24-52. For CH5 and CH6, mice were treated with a higher dose of SMN-C1 (3 mg/kg daily) for the duration of the study. Wild type (WT) mice [FVB.Cg-Tg(SMN2*delta7)4299Ahmb Tg(SMN2)89Ahmb, homozygous for the mouse Smnl gene] were used as a reference.
Statistical analysis was performed using SigmaPlot v11. Muscle performance data were analyzed using a two-way repeated measures ANOVA. Post-hoc analysis for pairwise comparisons was performed with a Holm-Sidak test. Body weights, muscle weights, muscle fiber typing data, and cortical and trabecular bone data were analyzed using a one-way ANOVA, with post-hoc analysis performed with a Holm-Sidak test. Data
Body weights were taken daily for SMA mice and weekly for WT mice.

delta7 mice [3] = assay: Bone microCT of the tibia (cortical and trabecular parameters); type: in vivo; settings: GYM329 3 mg/kg SC weekly
Procedure: Bone microCT scans were performed in tibias collected at PND52. There was no effect of treatment on cortical or trabecular parameters (FIG. 7 & FIG. 8).

delta7 mice [4] = assay: Plantarflexor histology: muscle fiber typing and cross-sectional area; type: in vivo; settings: GYM329 3 mg/kg SC weekly
Procedure: Plantarflexor (gastrocnemius, plantaris, and soleus) samples frozen for histology were embedded in cryomatrix on a soft cork surface to enable easy sectioning. Briefly, frozen and embedded tissues were mounted in a cryotome and serially sectioned (10 μm thickness) perpendicular to the fiber axis. Multiple slices (5-10) were taken at different portions of the muscle. The slices were then fixed in ice-cold paraformaldehyde and stored at −80° C. until further use.
For cross-sectional area determination, fixed sections from the mid-belly of the muscle were stained with wheat germ agglutinin (WGA) conjugated to a fluorophore to visualize cell membranes. Sections were digitized using fluorescent microscopy, cell boundaries were traced using predictive software, and cross-sectional area was determined via unbiased automated measurements. For muscle fiber type determination, histological slices were taken from the mid-belly of the soleus and the gastrocnemius muscle. The fixed tissue sections were then blocked using SuperBlock PBS blocking buffer (Thermo Fisher) for 1 h at room temperature. The slide was then washed with PBS and covered with a primary antibody against either MyHC-I, MyHC-IIa, or MyHC-IIb (1:20 dilution; Developmental Studies Hybridoma Database) and incubated overnight at 4° C. The slide was then washed with PBS and the appropriate secondary antibody added for 1 h at room temperature. The slide was washed again in PBS, covered in mounting solution, and a coverslip used to seal the tissue section for fluorescence microscopy measures. Fluorescently-labeled tissue sections were digitized using a fluorescence microscope (Nikon). Images were then analyzed for number of cells using standard counting software.

delta7 mice [5] = assay: In vivo masseter muscle function (maximum force, force frequency response); settings: GYM329 3 mg/kg SC weekly, PND52
Source text: To assess masseter function, the mouse was anesthetized via inhalation (˜4-5% isoflurane, or to effect) and placed on a thermostatically controlled table where anesthesia was maintained via nose-cone (˜2% isoflurane, or to effect). The mouse was placed supine with custom designed restraint to ensure accessibility of the jaw for testing. The lever arm of the 305C muscle lever system (Aurora Scientific Inc., Aurora, CAN) was positioned in the diastema of the mandible and a suture was run under the middle lower incisors of the mouse and attached to the lever arm. The masseter was contracted by electrical stimulation using surface electrodes.
as §1, §2

[6] = Tolerability study in healthy adult subjects; type: in vivo, human; settings: at AUC of 385 μg×d/mL
[7] = delta 7 mice + high dose SMN-C1 (3 mg/kg PND1-52), GYM329 3 mg/kg SC weekly, PND52, vs SMA Vehicle
[8] = PND52, delta 7 mice + low dose SMN-C1 (0.1 mg/kg PND1-52)
[9] = delta 7 mice + high dose SMN-C1 (3 mg/kg PND1-52)
[10] = delta 7 mice + low to high dose SMN-C1 (0.1 mg/kg PND1-23, 3 mg/kg PND24-52)
[11] = delta 7 mice + high dose SMN-C1 (3 mg/kg PND1-52), vs SMA Vehicle
[12] = delta 7 mice + low dose SMN-C1 (0.1 mg/kg PND1-52)

B1: GYM329: anti-myostatin antibody binding latent myostatin; CDRs SEQ ID 1-6, VH SEQ ID 7, VL SEQ ID 8, heavy chain SEQ ID 9, light chain SEQ ID 10 (antibody)
heavy: QVQLVESGGGLVQPGGSLRLSCAVSGIDLSHDDISWVRQAPGKGLEWVSIISYAGSTYYASWAKGRLTISKDTSKNQVVLTMTNMDPVDTATYYCARGVPAYSHGGDLWGQGTLVTVSSASTKGPSVFPLAPSSKSTSGGTAALGCLVKDYFPEPVTVSWNSGALTSGVHTFPAVLQSSGLYSLSSVVTVPSSSLGTQTYICNVNHKPSNTKVDKKVEPKSCDKTHTCPPCPAPEYLGGDSVFLFPPKPKDVLMISRTPEVTCVVIDVSHEDPEVKFNWYVDGVEVHNAKTKPREEQYNSTYRVVSVLPVLHRDWLNGKEYKCKVSNKALPKPIEKTISKAKGQRREPQVYTLPPSREEMTKNQVSLTCLVKGFYPSDIAVEWESNGQPENNYKTTPPVLDSDGSFFLYSKLTVDKSRWQQGNVFSCSVLHEALHAHTTRKELSLSP
light: DIVMTQSPATLSLSPGERATLSCTTSQSVYHENWLSWFQQKPGQPPKLLIYWASTLAYGVPSRFSGSGSGTDFTLTISSLQPEDAATYYCAGGYGGGRYAFGQGTKVEIKRTVAAPSVFIFPPSDEQLKSGTASVVCLLNNFYPREAKVQWKVDNALQSGNSQESVTEQDSKDSTYSLSSTLTLSKADYEKHKVYACEVTHQGLSSPVTKSFNRGEC
modifications: CDR sequences
- Plantarflexor muscle function (maximum torque) (delta7 mice [1]; delta 7 mice + high dose SMN-C1 (3 mg/kg PND1-52), GYM329 3 mg/kg SC weekly): not significantly affected
- Plantarflexor muscle function (maximum torque) (delta7 mice [1]; delta 7 mice + low dose SMN-C1 (0.1 mg/kg PND1-52), 3 mg/kg SC weekly, main effect p=0.078 vs SMA Vehicle): trend for improvement
- Plantarflexor muscle function (maximum torque) (delta7 mice [1]; delta 7 mice + low to high dose SMN-C1 (0.1 mg/kg PND1-23, 3 mg/kg PND24-52), GYM329 3 mg/kg SC weekly): no effect
- Body weights (delta7 mice [2]; [7]): significantly increased
- Gastrocnemius weight (delta7 mice [2]; [7]): significantly increased
- Soleus weight (delta7 mice [2]; [7]): significantly increased
- TA weight (delta7 mice [2]; [7]): significantly increased
- Body weight (delta7 mice [2]; delta 7 mice + low dose SMN-C1 (0.1 mg/kg IP QD PND1-52), GYM329 3 mg/kg SC weekly from PND24, vs SMA Vehicle): not significantly increased
- Gastrocnemius weight (delta7 mice [2]; delta 7 mice + low dose SMN-C1 (0.1 mg/kg PND1-52), GYM329 3 mg/kg SC weekly, PND52, p=0.061): trend for increased
- Muscle weights (delta7 mice [2]; delta 7 mice + low dose SMN-C1 (0.1 mg/kg PND1-52), GYM329 3 mg/kg SC weekly, PND52, vs SMA Vehicle): did not significantly affect
- Muscle weights (delta7 mice [2]; delta 7 mice + low to high dose SMN-C1 (0.1 mg/kg PND1-23, 3 mg/kg PND24-52), GYM329 3 mg/kg SC weekly, PND52): not affected
- Cortical bone parameters (delta7 mice [3]; [8]): no effect
- Trabecular bone parameters (delta7 mice [3]; [8]): no effect
- Bone volume (trabecular) (delta7 mice [3]; [9]): improved
- Cortical cross-sectional thickness (delta7 mice [3]; [9]): improved
- Mean total cross-sectional bone area (cortical) (delta7 mice [3]; [9]): improved
- Trabecular number (delta7 mice [3]; [9]): improved
- Trabecular separation (delta7 mice [3]; [9]): improved
- Trabecular thickness (delta7 mice [3]; [9]): improved
- Cross-sectional thickness in cortical bone (delta7 mice [3]; [10]): improved
- Mean total cross-sectional bone area in cortical bone (delta7 mice [3]; [10]): improved
- Trabecular bone parameters (delta7 mice [3]; [10]): no effect
- Muscle fiber types (delta7 mice [4]; [9]): no significant differences
- Mean fiber cross-sectional area (delta7 mice [4]; [11]): increased
- Type IIB fiber cross-sectional area (delta7 mice [4]; [11]): increased
- Muscle fiber cross-sectional area (delta7 mice [4]; [12]): no differences
- Muscle fiber type percentages (delta7 mice [4]; [12]): no differences
- Muscle fiber cross-sectional area (delta7 mice [4]; [10]): not affected
- Muscle fiber type composition (delta7 mice [4]; [10]): not affected
- Masseter maximum force (delta7 mice [5]; at 80, 100, and 150 Hz, delta 7 mice + high dose SMN-C1 (3 mg/kg PND1-52), vs SMA Vehicle): increased
- Masseter function (delta7 mice [5]; delta 7 mice + high dose SMN-C1 (3 mg/kg PND1-52), main effect p=0.048 vs SMA Vehicle): improved
- Masseter function (maximum force) (delta7 mice [5]; delta 7 mice + low dose SMN-C1 (0.1 mg/kg PND1-52), vs SMA Vehicle): no effect
- Masseter function (maximum force) (delta7 mice [5]; [10]): no effect
- Tolerability [6]: well-tolerated
